Measurements: patent publication US9902758B2, “Three-helix bundle protein and use thereof” (Samsung Electronics Co., Ltd., priority 2015, dated 2018)

T1: HDMX NTD (the region from 1st to 132nd amino acids of NP_001191100.1) (Homo sapiens, UniProt O15151)
T1 construct: the region from 1st to 132nd amino acids of NP_001191100.1
T1 sequence (O15151 1-132 isoform O15151-5): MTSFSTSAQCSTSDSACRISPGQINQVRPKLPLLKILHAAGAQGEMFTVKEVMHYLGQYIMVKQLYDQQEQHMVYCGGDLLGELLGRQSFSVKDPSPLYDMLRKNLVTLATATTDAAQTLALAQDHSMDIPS

B1: M11: modified three-helix bundle protein, a3D variant, SEQ ID NO: 7 (protein)
chain: MGSWAEFSQRLFAIYWRLLALGGSEAELAAFEKEIAAFESELQAYKGKGNPEVEALRKEAAAIRDELQAYRHN
modifications: Synthetic M11
B2: M25: modified three-helix bundle protein, a3D variant, SEQ ID NO: 16 (protein)
chain: MGSWFEFAWRLLEIKTRLQALGGSEAELAAFEKEIAAFESELQAYKGKGNPEVEALRFEAYWIRLELQAYRHN
modifications: Synthetic M25

Tests used:
[1] = related art statement; cited from earlier work
[2] = tested on: SJSA-1 (p53+/+) osteosarcoma cell line; assay: Cell cycle arrest in SJSA-1 cells (EdU / Hoescht 33342 imaging); type: cell-based; details: 10 uM, 24 hours, compared to control (Mock), FIG. 7
Experimental: In this example, it was examined if the modified three-helix bundle proteins prepared in Example 3 can induce G1 and G2/M phase cell cycle arrest in SJSA-1 (p53+/+; ATCC), which is an osteosarcoma cell line expressing wild-type p53.
In particular, SJSA1 cells were treated with the modified three-helix bundle protein M11 or M25 at the concentration of 10 uM for 24 hours, and stained with EdU (Edu staining kit, Life Technology Inc.) and Hoescht 33342 (Life Technology Inc.). Among the cells, at least 1000 cells were analyzed by imaging with incell analyzer 6000 (Ge Healthcare) and incell communicator (GE Healthcare). For comparison, the same experiment using Nutlin 3a (Sigma) at the concentration of 10 uM was performed as a positive control.
The imaging results were analyzed by measuring the intensities of EdU (S phase indicator) and Hoescht33342 (DNA content indicator) at single cell level, and determining each population by measuring intensity of Hoescht33342 (DNA content indicator) and EdU (S phase indicator) at single cell level, thereby measuring ratio of cells at each cell cycle phase. The obtained population of each cell cycle phase was shown in FIG. 6, and the S phase measured by EdU uptake amount (EdU intensity) was shown in FIG. 7. […] G2/M is considered as a course progressing to G1 phase.

[3] = biological target: T1, HDMX NTD (the region from 1st to 132nd amino acids of NP_001191100.1); assay: ELISA binding strength to HDMX NTD; details: absorbance at 450 nm, GST-fused protein 0-5.5 uM, versus GST only (negative control) and GST-p53LZ2 (positive control), FIG. 3
Experimental: (§1) The binding strength of the modified three-helix bundle proteins prepared in Example 1 was examined by ELISA.
(§2) In particular, each of full-length HDM2 (NP 002383.2), HDM2 N-terminal domain (NTD; the region from 1st to 125th amino acids of NP 002383.2), full-length HDMX (NP_001191100.1), and HDMX NTD (the region from 1st to 132nd amino acids of NP_001191100.1) was diluted to the concentration of 20 μg/ml with coating buffer (pH 9.6; 0.05M carbonate-bicarbonate buffer, pH9.6; Sigma-Aldrich), and coated on 96 well (Nunc, Maxisorp). The well was incubated overnight at 4° C. Thereafter, bindings between other proteins were blocked with 300 ul of 3% skim milk w/PBS-T (at room temperature for 3 hours). The 96 well plate was washed with 200 uL of PBS-T and treated with GST-M11 (SEQ ID NO: 7) or GST-M25 (SEQ ID NO: 16) at a concentration of 0, 0.5, 1, 1.5, 2, 2.5, 3, 3.5, 4, 4.5, 5, or 5.5 uM (micromole). The GST protein was produced from GST cds included in pGEX-4T3 vector purchased from GE healthcare.
(§3) One hour after, the plate was washed with 300 uL of PBS-T, and treated with 100 uL of HRP conjugated-anti-GST antibody (Abcam, 1:2000). […] Thereafter, absorbance at 450 nm was measured using microwell reader (Molecular Device, 340PC384). […]

[4] = tested on: SJSA-1 (p53+/+) osteosarcoma cell line; assay: Cancer cell proliferation inhibition in SJSA-1 cells (CellTiter-Glo cell viability); type: cell-based; details: 5 days, TAT-coupled protein, FIG. 8; for cancer cell death rate: 10.00 uM
Experimental: The effects of the modified three-helix bundle proteins prepared in Example 1 to inhibit cancer cell proliferation was examined in SJSA-1 (p53+/+; ATCC), which is an osteosarcoma cell line expressing wild-type p53.
The cells were cultured in CO2 incubator under the conditions of 37° C., and CO2 5%, for 5 days. 80 uL of CellTiter-Glo reagent (Promega) was added to each well, and luminescence was measured with EnVision Multilabel Reader (PerkinElmer), to measure cell viability. The cell viability is indicated by a relative value to that of non-treated cells (“1.0”).

[5] = biological target: T2, full-length HDM2 (NP 002383.2) (Homo sapiens, UniProt Q00987); assay: ELISA binding strength to full-length HDM2; details: absorbance at 450 nm, GST-fused protein 0-5.5 uM, versus GST only (negative control) and GST-p53LZ2 (positive control), FIG. 4
T2 construct: full-length HDM2 (NP 002383.2)
Experimental: as §1, §2, §3

[6] = biological target: T3, HDM2 N-terminal domain (NTD; the region from 1st to 125th amino acids of NP 002383.2) (Homo sapiens, UniProt Q00987); assay: ELISA binding strength to HDM2 NTD; details: absorbance at 450 nm, GST-fused protein 0-5.5 uM, versus GST only (negative control) and GST-p53LZ2 (positive control), FIG. 5
T3 construct: the region from 1st to 125th amino acids of NP 002383.2
Experimental: as §1, §2, §3

T2 sequence (Q00987 1-497 isoform Q00987-11): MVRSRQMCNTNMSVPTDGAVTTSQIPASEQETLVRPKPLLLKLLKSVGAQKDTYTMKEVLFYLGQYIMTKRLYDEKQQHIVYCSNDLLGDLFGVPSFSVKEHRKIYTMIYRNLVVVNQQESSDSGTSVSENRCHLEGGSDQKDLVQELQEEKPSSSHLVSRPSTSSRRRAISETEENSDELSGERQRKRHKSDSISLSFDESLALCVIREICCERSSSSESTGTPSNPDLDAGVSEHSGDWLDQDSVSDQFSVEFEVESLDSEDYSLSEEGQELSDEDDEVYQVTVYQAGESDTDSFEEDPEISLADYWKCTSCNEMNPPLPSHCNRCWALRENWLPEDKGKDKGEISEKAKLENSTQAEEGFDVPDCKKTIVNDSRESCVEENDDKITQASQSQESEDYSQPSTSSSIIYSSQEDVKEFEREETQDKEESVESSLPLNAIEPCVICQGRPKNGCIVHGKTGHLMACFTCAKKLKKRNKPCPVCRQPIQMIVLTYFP
T3 sequence (Q00987 1-125 isoform Q00987-11): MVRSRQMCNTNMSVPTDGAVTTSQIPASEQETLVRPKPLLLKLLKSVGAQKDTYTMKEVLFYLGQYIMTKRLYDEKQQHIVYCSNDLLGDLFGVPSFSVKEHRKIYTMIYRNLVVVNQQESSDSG

| Molecule | cytotoxicity [1] | level (cell number) of cells at S phase measured by EdU intensity [2] | binding strength to HDMX NTD [3] | cancer cell death rate [4] | cancer cell proliferation inhibition effect compared with positive control [4] | binding strength to full-length HDM2 [5] | binding strength to HDM2 NTD [6] |
| --- | --- | --- | --- | --- | --- | --- | --- |
| COc1ccc(C2=N[C@@H](c3ccc(Cl)cc3)[C@@H](c3ccc(Cl)cc3)N2C(=O)N2CCNC(=O)C2)c(OC(C)C)c1 [Nutlin-3] | high level of cytotoxicity |  |  |  |  |  |  |
| COc1ccc(C2=N[C@@H](c3ccc(Cl)cc3)[C@@H](c3ccc(Cl)cc3)N2C(=O)N2CCNC(=O)C2)c(OC(C)C)c1 [nutlin3a, Nutlin 3a, reference compound] |  | decrease in level (cell number) of cells at S phase compared to that of control (Mock) |  |  |  |  |  |
| B1 |  | decrease in level (cell number) of cells at S phase compared to that of control (Mock) | considerably higher than that of the negative control, and similar to or higher than that of the positive control | at least 90% | equal to that of Nutlin-3 | considerably higher than that of the negative control, and similar to or higher than that of the positive control | considerably higher than that of the negative control, and similar to or higher than that of the positive control |
| B2 |  | decrease in level (cell number) of cells at S phase compared to that of control (Mock) | considerably higher than that of the negative control, and similar to or higher than that of the positive control | at least 80% | equal to that of Nutlin-3 | considerably higher than that of the negative control, and similar to or higher than that of the positive control | considerably higher than that of the negative control, and similar to or higher than that of the positive control |
